Measurements published in IntAct's records for PubMed 18940603.

B1: Ras-related protein Rab-27A (Mus musculus), Q9ERI2 (parent)
chain: MSDGDYDYLIKFLALGDSGVGKTSVLYQYTDGKFNSKFITTVGIDFREKRVVYRANGPDGAVGRGQRIHLQLWDTAGQERFRSLTTAFFRDAMGFLLLFDLTNEQSFLNVRNWISQLQMHAYCENPDIVLCGNKSDLEDQRAVKEEEARELAEKYGIPYFETSAANGTNISHAIEMLLDLIMKRMERCVDKSWIPEGVVRSNGHTSADQLSEEKEKGLCGC
partner: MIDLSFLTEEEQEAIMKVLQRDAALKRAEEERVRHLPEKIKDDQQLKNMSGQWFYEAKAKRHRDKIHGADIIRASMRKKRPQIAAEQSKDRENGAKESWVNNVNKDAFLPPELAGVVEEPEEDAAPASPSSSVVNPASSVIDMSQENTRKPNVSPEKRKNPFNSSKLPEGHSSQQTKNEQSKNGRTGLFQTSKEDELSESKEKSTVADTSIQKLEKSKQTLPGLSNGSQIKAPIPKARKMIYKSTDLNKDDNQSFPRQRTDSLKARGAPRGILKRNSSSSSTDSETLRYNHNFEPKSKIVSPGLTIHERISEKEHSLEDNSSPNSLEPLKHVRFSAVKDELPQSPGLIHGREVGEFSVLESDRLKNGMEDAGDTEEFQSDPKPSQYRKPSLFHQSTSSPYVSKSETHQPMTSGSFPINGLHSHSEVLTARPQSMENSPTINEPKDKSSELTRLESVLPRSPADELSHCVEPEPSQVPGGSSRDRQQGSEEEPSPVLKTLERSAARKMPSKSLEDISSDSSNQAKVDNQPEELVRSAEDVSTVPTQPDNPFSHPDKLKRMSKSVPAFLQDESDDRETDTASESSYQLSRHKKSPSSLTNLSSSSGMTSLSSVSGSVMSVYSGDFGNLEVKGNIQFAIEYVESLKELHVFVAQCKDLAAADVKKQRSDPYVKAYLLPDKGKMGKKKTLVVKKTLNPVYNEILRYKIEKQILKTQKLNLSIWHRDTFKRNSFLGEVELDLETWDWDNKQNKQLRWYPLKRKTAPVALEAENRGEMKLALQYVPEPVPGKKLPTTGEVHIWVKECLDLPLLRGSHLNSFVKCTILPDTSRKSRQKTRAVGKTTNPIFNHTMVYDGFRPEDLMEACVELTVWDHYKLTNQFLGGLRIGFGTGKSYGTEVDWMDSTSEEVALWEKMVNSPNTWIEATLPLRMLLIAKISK
B2: Ras-related protein Rab-27A (Mus musculus), Q9ERI2 (parent)
chain: B1 chain
partner: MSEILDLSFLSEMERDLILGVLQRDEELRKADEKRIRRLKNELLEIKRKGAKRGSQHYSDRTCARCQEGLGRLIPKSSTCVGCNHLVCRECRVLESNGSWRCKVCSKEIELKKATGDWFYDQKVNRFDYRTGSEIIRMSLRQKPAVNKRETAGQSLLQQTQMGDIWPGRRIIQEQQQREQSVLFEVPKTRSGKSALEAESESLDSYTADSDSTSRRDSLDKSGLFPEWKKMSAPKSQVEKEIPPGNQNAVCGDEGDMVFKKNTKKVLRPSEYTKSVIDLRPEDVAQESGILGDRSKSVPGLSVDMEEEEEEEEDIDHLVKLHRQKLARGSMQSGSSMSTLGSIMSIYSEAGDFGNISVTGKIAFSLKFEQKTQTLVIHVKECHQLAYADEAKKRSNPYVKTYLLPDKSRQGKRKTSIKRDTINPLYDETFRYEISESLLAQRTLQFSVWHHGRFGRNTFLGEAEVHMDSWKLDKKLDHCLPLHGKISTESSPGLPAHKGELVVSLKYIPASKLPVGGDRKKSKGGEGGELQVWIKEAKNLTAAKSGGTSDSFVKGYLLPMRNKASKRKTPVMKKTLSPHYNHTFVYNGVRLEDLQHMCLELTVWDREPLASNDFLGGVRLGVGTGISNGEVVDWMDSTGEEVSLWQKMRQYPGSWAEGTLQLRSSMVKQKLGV
B3: Ras-related protein Rab-27B (Mus musculus), Q99P58 (parent)
chain: MTDGDYDYLIKLLALGDSGVGKTTFLYRYTDNKFNPKFITTVGIDFREKRVVYDTQGADGASGKAFKVHLQLWDTAGQERFRSLTTAFFRDAMGFLLMFDLTSQQSFLNVRNWMSQLQANAYCENPDIVLIGNKADLPDQREVNERQARELAEKYGIPYFETSAATGQNVEKSVETLLDLIMKRMEKCVEKTQVPDTVNGGNSGKLDGEKPAEKKCAC
partner: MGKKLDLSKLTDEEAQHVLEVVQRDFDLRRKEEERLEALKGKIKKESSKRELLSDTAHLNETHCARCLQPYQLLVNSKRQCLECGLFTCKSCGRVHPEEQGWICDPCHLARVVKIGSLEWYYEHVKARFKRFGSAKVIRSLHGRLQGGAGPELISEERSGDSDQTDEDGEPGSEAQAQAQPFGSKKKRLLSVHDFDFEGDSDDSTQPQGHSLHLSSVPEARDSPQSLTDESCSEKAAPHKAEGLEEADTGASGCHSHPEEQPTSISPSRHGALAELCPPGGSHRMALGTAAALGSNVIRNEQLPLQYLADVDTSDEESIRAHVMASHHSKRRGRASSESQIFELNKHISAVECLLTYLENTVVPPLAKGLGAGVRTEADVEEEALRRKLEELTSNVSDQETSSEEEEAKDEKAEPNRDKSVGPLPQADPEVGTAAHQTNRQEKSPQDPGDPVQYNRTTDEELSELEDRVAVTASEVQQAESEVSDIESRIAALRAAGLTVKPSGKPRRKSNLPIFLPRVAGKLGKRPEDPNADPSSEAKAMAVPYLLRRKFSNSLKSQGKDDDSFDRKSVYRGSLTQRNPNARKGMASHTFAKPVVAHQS
B4: Ras-related protein Rab-27B (Mus musculus), Q99P58 (parent)
chain: B3 chain
partner: B1 partner
B5: Ras-related protein Rab-27A (Mus musculus), Q9ERI2 (parent)
chain: B1 chain
partner: B3 partner
B6: Ras-related protein Rab-27B (Mus musculus), Q99P58 (parent)
chain: B3 chain
partner: B2 partner

Variants of: B1
Settings: with sytl2_human SYTL2, Q9HCH5

| effect of a mutation on the interaction | Variant |
| --- | --- |
| increasing interaction | C123S;C188S |

Variants of: B2
Settings: with Sytl4, Q9R0Q1-1

| effect of a mutation on the interaction | Variant |
| --- | --- |
| increasing interaction | C188S |
| increasing interaction | C123S |
| increasing interaction | C123S;C188S |

Variants of: B3
Settings: with melph_human MLPH

| effect of a mutation on the interaction | Variant |
| --- | --- |
| increasing interaction | C123S;C188S |
| increasing interaction | C188S |

Variants of: B4
Settings: with sytl2_human SYTL2, Q9HCH5

| effect of a mutation on the interaction | Variant |
| --- | --- |
| increasing interaction | C123S;C188S |

Variants of: B5
Settings: with melph_human MLPH

| effect of a mutation on the interaction | Variant |
| --- | --- |
| increasing interaction | C188S |
| increasing interaction | C123S;C188S |

Variants of: B6
Settings: with Sytl4, Q9R0Q1-1

| effect of a mutation on the interaction | Variant |
| --- | --- |
| increasing interaction | C123S |
| increasing interaction | C123S;C188S |
| increasing interaction | C188S |
